Laboratory results from PMC4486954, “Highly homologous proteins exert opposite biological activities by using different interaction interfaces” (Scientific Reports, 2015).
Values belong to the molecule of their own block, whether it stands above or below them. cellulose membrane = C-terminus attached to a cellulose membrane (CelluSpots array) through an amide bond

Tests used:
iASPP Ank-SH3 = target: T1, iASPP Ank-SH3 (Homo sapiens, UniProt Q8WUF5); experiment: Fluorescence anisotropy binding of fluorescein-labeled iASPP Pro derived peptides to iASPP Ank-SH3; conditions: 250 μM iASPP Ank-SH3 titrated into 100 nM fluorescein-labeled peptide, 10 °C, 20 mM Hepes pH 7.3, ionic strength 50 mM
T1 construct: (2) iASPP Ank-SH3 603-828; HLT tag (His tag + lipoyl domain + TEV site) (N, cleaved yes); made in house; host or cells: E. coli HMS 174 (Novagen)
T1 sequence (Q8WUF5 603-828): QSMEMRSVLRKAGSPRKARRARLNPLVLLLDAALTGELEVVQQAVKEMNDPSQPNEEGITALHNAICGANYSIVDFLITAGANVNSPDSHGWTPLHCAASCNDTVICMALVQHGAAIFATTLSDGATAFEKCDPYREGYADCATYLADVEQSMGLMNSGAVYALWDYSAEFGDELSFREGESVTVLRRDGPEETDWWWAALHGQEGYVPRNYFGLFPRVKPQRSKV
Procedure: Binding of the iASPP Pro-derived peptides to iASPP Ank-SH3 was measured by fluorescence anisotropy using a PerkinElmer Life Sciences LS-50b spectrofluorimeter equipped with a Hamilton microlab M dispenser. Titration of iASPP Ank-SH3 into iASPP Pro derived fluorescein-labeled (FL) peptides was performed at 10 °C in 20 mM Hepes buffer, pH 7.3, 43 mM NaCl (total ionic strength = 50 mM), 10% glycerol and 5 mM β-mercaptoethanol. The excitation wavelength was set at 480 nm and the emission measured at 530 nm. The labeled peptide, dissolved in 1 ml buffer to a final concentration of 100 nM, was placed in the cuvette. 250 μM iASPP Ank-SH3 was placed in the dispenser and aliquots of 10–20 μl were added at 1.5 min intervals. The solution was then stirred for 30 sec, and the fluorescence and anisotropy were measured. Data were analyzed using the program Origin8 (OriginLab) and were fit to 1:1 binding model:
[drawing 1] (R- measured fluorescence anisotropy, R0- anisotropy value corresponding to the free peptide, ∆R- amplitude of the fluorescence anisotropy change, [Protein]- protein concentration, Kd- dissociation constant).

HLT-iASPP Ank-SH3 = target: T2, HLT-iASPP Ank-SH3 (human, UniProt Q8WUF5 603-828); experiment: peptide or protein array; CelluSpots array of 79 partly overlapping 15-residue iASPP Pro peptides on cellulose; 5 uM HLT-iASPP Ank-SH3 in 20 mM phosphate pH 7.0, ionic strength 150 mM, 5 mM βME, 10% glycerol, 2.5% skimmed milk; 4 °C overnight; detected with anti His HRP antibody; conditions: both partners purified
T2 construct: iASPP (human), four ankyrin repeats and SH3 domain, residues 603-828, Swiss-Prot Q8WUF5; Detected on the arrays by its His tag (anti His HRP antibody); source: E. coli HMS 174, purified (Nickel Sepharose, size exclusion chromatography); not shown: HLT (His tag, lipoyl domain, TEV protease cleavage site), N-terminal, kept
T2 sequence (looked up): T1 sequence (Q8WUF5 603-828)

binding to iASPP Ank-SH3 (in words) (iASPP Ank-SH3): no binding
Molecule: SDAGSYRRSLGSAGP [iASPP 324-338, iASPP Pro derived peptide, residues 324-338]

binding to iASPP Ank-SH3 (in words) (iASPP Ank-SH3): no binding
Molecule: FFPERGPSPRPPATA [iASPP 196-210, iASPP Pro derived peptide, residues 196-210]

binding to iASPP Ank-SH3 (in words) (iASPP Ank-SH3): too weak to quantify
Molecule: VARPLSPTRLQPALP [iASPP 484-498, iASPP Pro derived peptide, residues 484-498]

binding to iASPP Ank-SH3 (in words) (iASPP Ank-SH3): too weak to quantify
Molecule: PTPFDFLGRAGSPRG [iASPP 172-186, iASPP Pro derived peptide, residues 172-186]

binding to iASPP Ank-SH3 (in words) (iASPP Ank-SH3): no binding
Molecule: TLPRNYKVSPLASDR [iASPP 308-322, iASPP Pro derived peptide, residues 308-322]

binding to iASPP Ank-SH3 (in words) (iASPP Ank-SH3): no binding
Molecule: PRYSSSSIPEPFGSR [iASPP 68-82, iASPP Pro derived peptide, residues 68-82]

binding to iASPP Ank-SH3 (in words) (iASPP Ank-SH3): too weak to quantify
Molecule: PLFTRAPPPKLQPQP [iASPP 396-410, iASPP Pro derived peptide, residues 396-410]

binding to iASPP Ank-SH3 (in words) (iASPP Ank-SH3): no binding
Molecule: APSPRPGPGPLRQQG [iASPP 156-170, iASPP Pro derived peptide, residues 156-170]

binding to iASPP Ank-SH3 (in words) (iASPP Ank-SH3): too weak to quantify
Molecule: YGSLDRATSPRPRAF [iASPP 132-146, iASPP Pro derived peptide, residues 132-146]

binding result (HLT-iASPP Ank-SH3): binds
B1: iASPP Pro array peptide 172-186 (spot B4) (peptide)
peptide: Ac-PTPFDFLGRAGSPRG-{cellulose membrane (amide bond)}
modifications: also: C-terminus bound to cellulose membrane via amide
notes: iASPP (human) residues 172-186; source: synthetic peptide on CelluSpots array (INTAVIS)

binding result (HLT-iASPP Ank-SH3): binds
B2: iASPP Pro array peptide 148-162 (spot B1) (peptide)
peptide: Ac-GAGSSLGRAPSPRPG-{cellulose membrane (amide bond)}
modifications: also: C-terminus bound to cellulose membrane via amide
notes: iASPP (human) residues 148-162; source: synthetic peptide on CelluSpots array (INTAVIS)

binding result (HLT-iASPP Ank-SH3): binds
B3: iASPP Pro array peptide 68-82 (spot A15) (peptide)
peptide: Ac-PRYSSSSIPEPFGSR-{cellulose membrane}
modifications: also: C-terminus bound to cellulose membrane via amide
notes: iASPP (human) residues 68-82; source: synthetic peptide on CelluSpots array (INTAVIS)

binding result (HLT-iASPP Ank-SH3): binds
B4: iASPP Pro array peptide 340-354 (spot C1) (peptide)
peptide: Ac-GTLPRSWQPVSRIPM-{cellulose membrane (amide bond)}
modifications: also: C-terminus bound to cellulose membrane via amide
notes: iASPP (human) residues 340-354; source: synthetic peptide on CelluSpots array (INTAVIS)

binding result (HLT-iASPP Ank-SH3): binds
B5: iASPP Pro array peptide 604-618 (spot D11) (peptide)
peptide: Ac-SMEMRSVLRKAGSPR-{cellulose membrane}
modifications: also: C-terminus bound to cellulose membrane via amide
notes: iASPP (human) residues 604-618; also called iASPP 604-618; source: synthetic peptide on CelluSpots array (INTAVIS)

binding result (HLT-iASPP Ank-SH3): binds
B6: iASPP Pro array peptide 548-562 (spot D4) (peptide)
peptide: Ac-SRLFHRHGGPGPGGP-{cellulose membrane}
modifications: also: C-terminus bound to cellulose membrane via amide
notes: iASPP (human) residues 548-562; source: synthetic peptide on CelluSpots array (INTAVIS)

binding result (HLT-iASPP Ank-SH3): binds
B7: iASPP Pro array peptide 132-146 (spot A23) (peptide)
peptide: Ac-YGSLDRATSPRPRAF-{cellulose membrane (amide bond)}
modifications: also: C-terminus bound to cellulose membrane via amide
notes: iASPP (human) residues 132-146; source: synthetic peptide on CelluSpots array (INTAVIS)

binding result (HLT-iASPP Ank-SH3): binds
B8: iASPP Pro array peptide 348-362 (spot C2) (peptide)
peptide: Ac-PVSRIPMPPSSPQPR-{cellulose membrane (amide bond)}
modifications: also: C-terminus bound to cellulose membrane via amide
notes: iASPP (human) residues 348-362; source: synthetic peptide on CelluSpots array (INTAVIS)

binding result (HLT-iASPP Ank-SH3): binds
B9: iASPP Pro array peptide 308-322 (spot B21) (peptide)
peptide: Ac-TLPRNYKVSPLASDR-{cellulose membrane (amide bond)}
modifications: also: C-terminus bound to cellulose membrane via amide
notes: iASPP (human) residues 308-322; source: synthetic peptide on CelluSpots array (INTAVIS)

binding result (HLT-iASPP Ank-SH3): binds
B10: iASPP Pro array peptide 324-338 (spot B23) (peptide)
peptide: Ac-SDAGSYRRSLGSAGP-{cellulose membrane (amide bond)}
modifications: also: C-terminus bound to cellulose membrane via amide
notes: iASPP (human) residues 324-338; source: synthetic peptide on CelluSpots array (INTAVIS)

binding result (HLT-iASPP Ank-SH3): binds
B11: iASPP Pro array peptide 540-554 (spot D3) (peptide)
peptide: Ac-KKQYQQIISRLFHRH-{cellulose membrane}
modifications: also: C-terminus bound to cellulose membrane via amide
notes: iASPP (human) residues 540-554; source: synthetic peptide on CelluSpots array (INTAVIS)

binding result (HLT-iASPP Ank-SH3): binds
B12: iASPP Pro array peptide 356-370 (spot C3) (peptide)
peptide: Ac-PSSPQPRGAPRQRPI-{cellulose membrane (amide bond)}
modifications: also: C-terminus bound to cellulose membrane via amide
notes: iASPP (human) residues 356-370; source: synthetic peptide on CelluSpots array (INTAVIS)

binding result (HLT-iASPP Ank-SH3): binds
B13: iASPP Pro array peptide 380-394 (spot C6) (peptide)
peptide: Ac-NAFWEHGASRAMLPG-{cellulose membrane (amide bond)}
modifications: also: C-terminus bound to cellulose membrane via amide
notes: iASPP (human) residues 380-394; source: synthetic peptide on CelluSpots array (INTAVIS)

binding result (HLT-iASPP Ank-SH3): binds
B14: iASPP Pro array peptide 196-210 (spot B7) (peptide)
peptide: Ac-FFPERGPSPRPPATA-{cellulose membrane (amide bond)}
modifications: also: C-terminus bound to cellulose membrane via amide
notes: iASPP (human) residues 196-210; source: synthetic peptide on CelluSpots array (INTAVIS)

binding result (HLT-iASPP Ank-SH3): binds
B15: iASPP Pro array peptide 396-410 (spot C8) (peptide)
peptide: Ac-PLFTRAPPPKLQPQP-{cellulose membrane (amide bond)}
modifications: also: C-terminus bound to cellulose membrane via amide
notes: iASPP (human) residues 396-410; source: synthetic peptide on CelluSpots array (INTAVIS)

binding result (HLT-iASPP Ank-SH3): binds
B16: iASPP Pro array peptide 60-74 (spot A14) (peptide)
peptide: Ac-QAGPPSRPPRYSSSS-{cellulose membrane}
modifications: also: C-terminus bound to cellulose membrane via amide
notes: iASPP (human) residues 60-74; source: synthetic peptide on CelluSpots array (INTAVIS)

binding result (HLT-iASPP Ank-SH3): binds
B17: iASPP Pro array peptide 156-170 (spot B2) (peptide)
peptide: Ac-APSPRPGPGPLRQQG-{cellulose membrane (amide bond)}
modifications: also: C-terminus bound to cellulose membrane via amide
notes: iASPP (human) residues 156-170; source: synthetic peptide on CelluSpots array (INTAVIS)

binding result (HLT-iASPP Ank-SH3): binds
B18: iASPP Pro array peptide 484-498 (spot C19) (peptide)
peptide: Ac-VARPLSPTRLQPALP-{cellulose membrane}
modifications: also: C-terminus bound to cellulose membrane via amide
notes: iASPP (human) residues 484-498; source: synthetic peptide on CelluSpots array (INTAVIS)

binding result (HLT-iASPP Ank-SH3): binds
B19: iASPP Pro array peptide 388-402 (spot C7) (peptide)
peptide: Ac-SRAMLPGSPLFTRAP-{cellulose membrane (amide bond)}
modifications: also: C-terminus bound to cellulose membrane via amide
notes: iASPP (human) residues 388-402; source: synthetic peptide on CelluSpots array (INTAVIS)
